Test system: MS2 coat protein
Assay: apparent KD of MS2 coat protein; designed switch direction (-1 OFF switch, 1 ON switch): -1; higher = weaker reporter binding
How it was run: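 Transcription of designed RNA switches on Illumina chips was done by stalled E. coli RNA polymerase. SNAP-549-labelled MS2 coat protein was then titrated in doubling steps from 0.7 or 1.5 nM to 3 µM, with steps of 0.8–1.5 h at the lowest and 10–20 min at the highest concentration. The per-design median over clusters of curve-fitted normalised fluorescence is reported as apparent KD.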

[1] = input ligand: microRNA oligo, concentration not stated
[2] = Eterna round: R95, input ligand: FMN 200 uM
[3] = Eterna round: R95, input ligand: microRNA oligo, concentration not stated
[4] = Eterna round: R95, input ligand: none

| Sequence | apparent KD of MS2 coat protein (input ligand: FMN 200 uM) [nM] | apparent KD of MS2 coat protein [1] [nM] | apparent KD of MS2 coat protein (input ligand: none) [nM] | apparent KD of MS2 coat protein [2] [nM] | apparent KD of MS2 coat protein [3] [nM] | apparent KD of MS2 coat protein [4] [nM] |
| --- | --- | --- | --- | --- | --- | --- |
| UACAUGAGGAUCACCCAUGUUUUGUCGUGUAUGGUAUUUAUCUAGGAUAUCAUGUUAUUUAGUUAUGAGAAGGAGAAUAUUAAU [JMF's solution 81] (Eterna round: R96, puzzle: Exclusion NG 3) | 45.6 | 31.3 | 38.5 |  |  |  |
| AAGAAACAUGAGGAUCACCCAUGUGAGGAUAUGAUCAAGAAAAGAAAAGAAAGAAGACUCAGAAGGCACAAAGG [salish99-ex1_r3_071] (puzzle: Exclusion 1) |  |  |  | 162 | 210 | 548 |
| AGAGUACAUGAGGAUCACCCAUGUUAGGAUAUGCAUAAUAAGAAGAAGAGAAGAGAGAGCAGAAGGAACAAGAG [Ex 1 M1] (puzzle: Exclusion 1) |  |  |  | 42.5 | 48 | 57.8 |
| CACCGUUACGUAGGAUAUGUUACAUGAGGAUCACCCAUGUAAUAAAUGAGAAUUUCGAAUGUAAUACAGAAGGACGGAAUCGGC [Ostracism 70 - Jieux - Exclusion NG 2] (Eterna round: R96, puzzle: Exclusion NG 2) | 53.3 | 26 | 32 |  |  |  |
| UGCUACAUGAGGAUCACCCAUGUAAUGUGGGAUUCGUUAGGACAGGAUAUGAUUGUAUAGUUUUUUCAGAAGGGUCAUUACUUU [JR_ExcNG3_Sub010] (Eterna round: R96, puzzle: Exclusion NG 3) |  | 62.9 |  |  |  |  |
| AUGGUACAUGAGGAUCACCCAUGUUAGGAUAUCGCGUGACCUAAAACUAAGAGACACACGAGAAGGGACGACAU (puzzle: Exclusion 1) |  |  |  |  | 77.3 |  |
| GUAUCGUGAGGAUAUCAUGAUUGACUUUUAUUUUGUCAGCGUGAGAAGGCACAUGAGGAUCACCCAUGUGAUUA [Ex4 - 3 - 8] (puzzle: Exclusion 4) |  |  |  |  | 23.2 |  |
| UUUCAACGGUAGGAUAUCGAGACUACGACUAGCCGAGAAGGGCCGACAUGAGGAUCACCCAUGUGCCUCACCCG [Eternabot (L1) Solution 56] (Eterna round: R97, puzzle: Exclusion 6) | 22.9 |  | 23.9 |  |  |  |
| AAAAGAACAGGAUAUUCGGGAAAUAACAUGAGGAUCACCCAUGUUAACGCGGGUGAGAACGAAGAAGGGUUCUAAA [Atusceon] (puzzle: Exclusion 5) |  |  |  | 114 | 96.4 | 93.1 |
| GGGAAGAACCAACAAGCAAACAUGAGGAUCACCCAUGUAGUAAGAGAAAUUGAGGUGAUUCAGAGAGCUCGACUUAU [AK-miRNA-r3-7.1] (Eterna round: R97, puzzle: Sensor, turn-off variant 1) | 367 |  | 359 |  |  |  |
| GGUUGGCGAGGAUAUACAUGAGGAUCACCCAUGUGAGCGAAAAAAGUGAGGAAGAAAAGUAGAAGGCGCUGACG [salish99_ex3_r3_020] (puzzle: Exclusion 3) |  |  |  | 236 | 40.1 | 63.5 |
| AGCUGUGGCCGAGGAUAUCCACAUGAGGAUCACCCAUGUGAAUACCCAAUUAAGGGAUAACCGUGGGAGAAGGCGGUCUCAGCA [Eli eng2 - 048] (Eterna round: R96, puzzle: Exclusion NG 2) | 80.9 | 112 | 167 |  |  |  |
| UUUGUCUGUGUGAGGAUAUACUUGUUUGGGUUUUUGUAGAAGGCACAUGAGGAUCACCCAUGUAUUUUGUUGUG [JR_BME4_Sub017] (Eterna round: R96, puzzle: Brourd's mod of Exclusion 4) | 86.5 | 47.7 | 55.9 |  |  |  |
| CUGUGCACGCUGCGGUCCUACAUGAGGAUCACCCAUGUGGUCUGGUGGCGUGGGUCACCGGACUUGGCUCGUCUUGA [salish99_S_TOV1_R5_065] (Eterna round: R97, puzzle: Sensor, turn-off variant 1) | 44.8 |  | 49.3 |  |  |  |
| CCGGUAAAGGAGGAUAUAGGAGUCGAUAGACACCUAGAAGGCCUGACAUGAGGAUCACCCAUGUGUCCUACCGG [Fiskers Ex 6 - 93] (puzzle: Exclusion 6) |  |  |  | 23.7 | 14.1 | 13.5 |
| GGUUGGCGAGGAUAUACAUGAGGAUCACCCAUGUGAGAGAAAGAAGUGAGGAAGAAUAGUAGAAGGCGCUGACG [salish99_ex3_r3_056] (puzzle: Exclusion 3) |  |  |  | 746 | 56.1 | 69.1 |
| CUAGUCCGAGGAUAUAUAUUGUGAAACAUGAGGAUCACCCAUGUUAUAAUAUGGAAAUAAAUAGAAGGCGGACUAG [Mat - Exclusion 5 - JL mod - D57] (puzzle: Exclusion 5) |  |  |  | 23.3 | 38.5 | 18.8 |
| AGUACUAUGCGUGCUGACAUGCGUAGUGCAGCAGGUGUUACAUGAGGAUCACCCAUGUCCUCAUUUGCUCGUCUUAA [Mat - Sensor v3 - Turn-off var 2 - D16] (puzzle: Sensor v3, turn-off variant 2) |  |  |  | 88 | 115 | 97.6 |
| AACCUGAGGCAAAGCUUUAGGUGUACAUGAGGAUCACCCAUGUAGGAUAUGGUAGGCAAAGCUUACCAGAAGGACAUAAAGGUU [Mat - Exclusion NG 3 - Mod of JL - D45] (Eterna round: R96, puzzle: Exclusion NG 3) | 81.4 | 36.4 | 47.7 |  |  |  |
| CGUGGCCAAGGAUAUGGGUAUCAUGACAUGAGGAUCACCCAUGUAUAGAGGAUCCAUAGCCCAGAAGGUGGUCCGG [Eternabot (L1) Solution 85] (Eterna round: R97, puzzle: Exclusion 5) | 44 |  | 17 |  |  |  |
| AAGUCAACAUGAGGAUCACCCAUGUCCAAGUUGAUGUCCUGUGAGGAUAUGUGUAAACGGCCGGCACAGAAGGCACAAGACGCG [Eternabot solution 5] (Eterna round: R96, puzzle: Exclusion NG 3) | 32.3 | 30.4 | 34.5 |  |  |  |
| GUAUCCGAGAAGGAUAUCAAUGGCCCGGACCACUGAGAAGGUCUCACAUGAGGAUCACCCAUGUCACAGGUGCA [Eternabot (Original) Solution 29] (Eterna round: R97, puzzle: Exclusion 6) | 74.1 |  | 70.3 |  |  |  |
| AACAAAAGCGUAGGAUAUGACUGGGCUCAUGCCUAACAUAACUACAAACAUGAGGAUCACCCAUGUCAGAAGGACGAAUAAAAU [Isesbequti] (Eterna round: R96, puzzle: Exclusion NG 2) | 87.1 | 57.5 | 72 |  |  |  |
| UUAUUUAGGUAGGAUAUCGAUAUUAAUUAUUAUCGAGAAGGGUCUACAUGAGGAUCACCCAUGUUAGCAUGUUU [LRO-Excl6-09-Rocketman] (Eterna round: R97, puzzle: Exclusion 6) | 23.3 |  | 29.3 |  |  |  |
| CGUACUAAAGUCAGGAUAUUGUCUCGGAUACGAAACAAGAAGGGACAUGAGGAUCACCCAUGUAGAUAGUACGA [Malc #30 mod 5] (puzzle: Brourd's mod of Exclusion 4) |  |  |  | 16.9 | 23.4 | 26.6 |
